Results as given in the supplement of paper PMC12764529.
± gives the half width of the 95% confidence interval.

Assays:
[1] = folding stability dG unfold (combined trypsin and chymotrypsin); higher = more stable
Outline: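 Designed mini-proteins with no cysteine and under 80 residues were kept only if AlphaFold2 dimer inter-PAE was above 15. In a PA-tagged cDNA display construct, they were digested with trypsin and chymotrypsin and then sequenced. K50 was inferred by Bayesian fitting of counts, and unfolding free energy was derived per protease or combined against a sequence-predicted unfolded-state K50 and a shared folded-state K50.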

[2] = folding stability dG unfold from trypsin proteolysis; higher = more stable
Experimental: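 Folding stability of de novo designed mini-proteins (<80 aa, no Cys; designed by TrROS, TrMRF, ProteinMPNN and the joint model) was measured by cDNA display proteolysis with trypsin and chymotrypsin. Each protease was used at 11 concentrations in a threefold dilution series plus a no-protease condition. K50 was inferred by Bayesian fitting of sequencing counts, and dG unfold was derived against a sequence-predicted unfolded-state K50 (Tsuboyama et al. method). Sequences shown include variable-length N-terminal GS-type padding (SAGGSAGG...) inside a display construct carrying a PA tag. Rows were kept only if the AF2 dimer inter-PAE was >15, to exclude likely homo-oligomers.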

Sequence | folding stability dG unfold [1] [kcal/mol] | folding stability dG unfold [2] [kcal/mol]
SAGGSAGGSAGATVLQQGTATPPDGTTVTFNYNITLPSDVLISVDKNPPNPDLVTKIEAGSAGGSAGGSAGG [r11_781_JUSTAS] | -0.197 ± 0.4 | 0.154 ± 0.029
SAGGSAGGSAGEPEKPVLVKVILPGGKPLLIPGKREEAKKAVEELEKKGFPVEKAEVFDESAGGSAGGSAGG [r11_946_TrMRF] | < -1 | -0.485 ± 0.096
SAGGSAGGSAGERIPIKVSIHDPDGRMVPMEIKEIDPDDGTIEVKLPGLPPGIRSIHIMLSAGGSAGGSAGG [r17_260_TrROS] | < -1 | -1.01 ± 0.31
SAGGSAGGSAGGAMREVPIVLPFSPEMSEEEARALIEEELKRKGDPIAKLVIDKKSPALLSAGGSAGGSAGG [r7_703_JUSTAS] | < -1 | -0.687 ± 0.45
SAGGSAGGSAGGDVEVKEFTTTDPETGEEIIRVTETIPGNEKIVTTYTKDGKPISTKKILSAGGSAGGSAGG [r7_454_JUSTAS] | -0.528 ± 0.24 | -0.0907 ± 0.13
SAGGSAGGSAGGGSMTLSLDTRPEDGTLVLVSTFVDPASGLVSVTTTYPDSTVTTTLPVGSAGGSAGGSAGG [r7_402_JUSTAS] | 0.528 ± 0.087 | 0.998 ± 0.049
SAGGSAGGSAGGIWIPGDDIKEALKKMPPDVTKHIFNPDEGRWIMIKVNDNKIDIEPWPSAGGSAGGSAGGS [r10_137_TrROS] | -0.748 ± 0.36 | -0.392 ± 0.16
SAGGSAGGSAGGKEIPLDEVKDIQPSNDKWYVVFPGKPQRFPPDDIPIPPGKPIRIYPLSAGGSAGGSAGGS [r10_665_TrROS] | -0.154 ± 0.24 | 0.338 ± 0.058
SAGGSAGGSAGGKGWPTVEIPMPENGKPTPDSIEEIAEKFNMPNVEVEQSDDWHKIDVDSAGGSAGGSAGGS [r10_642_TrROS] | -0.295 ± 0.32 | 0.92 ± 0.047
SAGGSAGGSAGGKLVKVTFRTPGGGTLTVEVPPTESLTLPYGDKPILVDVKEDEVVFRDESAGGSAGGSAGG [r7_510_TrMRF] | -0.891 ± 0.44 | -0.572 ± 0.18
SAGGSAGGSAGGKPIYILAEHPSNGKVVLLPVDSPEKAIEFAKALADVPDFKIAHVDAFGSAGGSAGGSAGG [r11_951_TrMRF] | -0.287 ± 0.22 | 0.341 ± 0.052
SAGGSAGGSAGGLADLLKGKTFTVTFPEGDKPYPATFEPTADDTVRVGFPDGDSYPVPAAYQSAGGSAGGSA [r18_169_TrMRF] | < -1 | -0.466 ± 0.2
SAGGSAGGSAGGLKIQRFPDGNWYRIYLPNGNEHHIPMDEPIKVPNAKEPVKIEPVPPDDSAGGSAGGSAGG [r7_968_TrROS] | -0.961 ± 0.41 | -0.936 ± 0.28
SAGGSAGGSAGGMITKVTVTYLPGGEVSLTITDENGTPSEKTLSLAELKKYPDIPLELDPSAGGSAGGSAGG [r7_238_JUSTAS] | -0.374 ± 0.088 | 0.174 ± 0.05
SAGGSAGGSAGGMKVEVVDITGPPDLSPDATTTTKHPNGVTSTTTMTDPATRTSTIYTPESAGGSAGGSAGG [r11_362_JUSTAS] | < -1 | -0.899 ± 0.83
SAGGSAGGSAGGMKVSVSLDILETEVSPDGTVTATYKDESGEIRTITKYVEVKLKPGLASAGGSAGGSAGGS [r10_281_JUSTAS] | -0.237 ± 0.19 | -0.148 ± 0.067
SAGGSAGGSAGGMTEYVPGEGKVLVTYPDGTTKVVPVDPATPEEFRAELEAAGVPEIKPLSAGGSAGGSAGG [r7_139_JUSTAS] | 0.198 ± 0.085 | 0.762 ± 0.027
SAGGSAGGSAGGMTTITVKDKTKEEIEKELAEKYNVKKVTVTPIEGNSVKVEVEIEPLGSAGGSAGGSAGGS [r10_1219_JUSTAS] | -0.948 ± 0.46 | -0.216 ± 0.19
SAGGSAGGSAGGPEYIQINIKIYDPDNPKEREIPISMPVEEIEKIAKEFMPPGYRVEIISAGGSAGGSAGGS [r10_397_TrROS] | < -1 | 0.152 ± 0.14
SAGGSAGGSAGGPIKVKADKVTVEKRRNPENGKEYVELTVPGPGGTRTGRFPAEDLDKISAGGSAGGSAGGS [r10_447_TrROS] | < -1 | -0.654 ± 0.21
SAGGSAGGSAGGPKIDHVMLHRNPGNGRYNVTIKLRDPNGKPKDTIMVPMNDPEKILDALSAGGSAGGSAGG [r7_484_TrROS] | -0.652 ± 0.22 | -0.0862 ± 0.06
SAGGSAGGSAGGPMSNVVEEVVSVEVTNPGLPDSRFVTNPEPGVPLPVPRTVPVVIVLRASAGGSAGGSAGG [r11_257_JUSTAS] | < -1 | -0.602 ± 0.33
SAGGSAGGSAGGPSDVTLLEEEVEELPNGTIKTRYTFKLPNGELAEAESTTPLEGPFHHSAGGSAGGSAGGS [r10_532_JUSTAS] | -0.463 ± 0.26 | -0.0802 ± 0.2
SAGGSAGGSAGGRIRLPNMPPGHDMEIKSIKVPEPGPVKLTIEPPGSDKKQERYMPPDDISAGGSAGGSAGG [r7_342_TrROS] | < -1 | 0.0711 ± 0.23
